Experimental data: article PMC3139429

Assays:
[1] = biological target: MyrMA (myristoylated matrix) (HIV-1, UniProt P12493 2-132); assay: fluorescence anisotropy
[2] = biological target: MA (unmyristoylated matrix) (HIV-1, UniProt P12493 2-132); assay: fluorescence anisotropy

Binder GGACAGGAAUUAAUAGUAGCUGUCC (structured_RNA) [FITC-Sel25] has a Kd [1] of 813 ± 74 nM and a Kd [2] of 1030 ± 80 nM.
